Consider eight substances from article PMC5240591.

As usually defined, the Kd is the constant that tells how readily two partners part at equilibrium. Low readings indicate higher affinity, high ones lower affinity. The stoichiometry N is the number of molecules, sites or subunits per partner or assembly.

Common to all, as to assay: fluorescence polarisation
(In general: Polarisation of emitted light reports the rotation of a fluorescent probe.)

For assay [1], the target named is T4 lysozyme mutant L99A/A130S, bimane-labelled at Cys151 (T151Bi) (bacteriophage T4) (UniProt P00720).
The target in assay [2] is T4 lysozyme mutant L99A, bimane-labelled at Cys151 (T151Bi) (bacteriophage T4) (UniProt P00720).
The target is the same in assay [3]. The source holds these as a separate data set.
Assay [4] deals with T4 lysozyme mutant L99A/A130S, bimane-labelled at Cys151 (T151Bi) (bacteriophage T4) (UniProt P00720). This is another data set of the same source.
Assay [5] deals with T4 lysozyme mutant D70N, bimane-labelled at Cys151 (T151Bi) (bacteriophage T4) (UniProt P00720).
The target in assay [6] is T4 lysozyme mutant L99A, bimane-labelled at Cys151 (T151Bi) (bacteriophage T4) (UniProt P00720). The source holds these as a separate data set.
The target is the same in assay [7]. The source holds these as a separate data set.
For assay [8], the target named is T4 lysozyme mutant L99A/A130S, bimane-labelled at Cys151 (T151Bi) (bacteriophage T4) (UniProt P00720). This is another data set of the same source.

Like-named read-outs stand apart in the source and are kept apart here.

With “zebrafish αA-crystallin (from UniProt Q8UUZ6 1-173) (natural protein)”, the Kd in assay [1] is 20.9 µM; in assay [2], 50.7 µM; in assay [3], 8320 nM; in assay [4], 6200 nM; in assay [5] it was 88.9 µM; in assay [6] it was 8160 nM. In assay [4], this substance showed a stoichiometry N of 1.25.
With “rat αA^ins-crystallin (from UniProt P24623 1-196) (natural protein)”, the Kd in assay [4] came to 64 nM; in assay [5] it was 6.82 µM; in assay [6] it was 17 nM. The stoichiometry N stood at 0.32 in assay [4] and 0.33 in assay [6].
With “triply phosphorylated analog (S19D/S45D/S59D) of human αB-crystallin (from UniProt P02511 1-175) (natural protein)”, the Kd in assay [3] was 71 nM.
For “human αB-crystallin (from UniProt P02511 1-175) (natural protein)”, in assay [3], the Kd is 28000 nM.
“zebrafish αBa-crystallin, population αBa-S (from UniProt Q9PUR2 1-168) (natural protein)”: the Kd in assay [1] came to 0.21 µM; in assay [2], 0.92 µM; in assay [3], 68 nM; in assay [7] it was 12 nM; in assay [4] it was 63 nM; in assay [5], 1.87 µM. Also, in assay [6], the Kd came out at 58 nM. Further, the stoichiometry N in assay [3] came to 0.65; in assay [7], 0.64; in assay [4], 0.65; in assay [6] it was 0.47.
As to “human αA-crystallin (from UniProt P02489 1-173) (natural protein)”, the Kd amounted to 1900 nM in assay [3], 2370 nM in assay [4], 14.7 µM in assay [5] and 2430 nM in assay [6].
Regarding “zebrafish αBb-crystallin (from UniProt Q6DG35 1-165) (natural protein)”, the dissociation constant Kd was 4.94 µM in assay [1]; 29 µM in assay [8]; 120 nM in assay [4]; 4.85 µM in assay [5]; 1340 nM in assay [6]. The substance also showed a stoichiometry N in assay [4] of 0.33.
“triply phosphorylated analog (S15D/S78D/S82D) of human Hsp27 (from UniProt P04792 1-205) (natural protein)”: the Kd in assay [3] turned out to be 38 nM.
